Data set [1] concerns the target T1, Ku (Mycobacterium smegmatis, UniProt A0R3S7 1-318).
T1 sequence: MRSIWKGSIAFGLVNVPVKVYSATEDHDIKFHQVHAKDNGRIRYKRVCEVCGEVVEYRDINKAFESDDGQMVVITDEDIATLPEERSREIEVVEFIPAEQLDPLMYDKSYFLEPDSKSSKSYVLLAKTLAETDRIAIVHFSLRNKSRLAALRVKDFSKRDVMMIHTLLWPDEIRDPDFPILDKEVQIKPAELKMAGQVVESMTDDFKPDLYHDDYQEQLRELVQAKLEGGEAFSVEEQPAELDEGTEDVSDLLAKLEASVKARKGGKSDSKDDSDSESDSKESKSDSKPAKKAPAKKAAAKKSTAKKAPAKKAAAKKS
As to the kind of experiment: EMSA.

The target in data set [2] is T1, Ku. The experiment in a line: EMSA. The source holds these as a separate data set. A general note: In EMSA bound probe runs differently from free probe, usually more slowly.

What is called Kd is the free concentration of one partner at which half of the binding sites on the other are occupied at equilibrium, for simple one-to-one binding. A lower Kd goes with higher affinity.

B1: 37 bp DNA (dsDNA)
DNA 1: CCTAGGCTACACCTACTCTTTGTAAGAATTAAGCTTC
DNA 2: GAAGCTTAATTCTTACAAAGAGTAGGTGTAGCCTAGG
For B1, in the data set with Ku [1], the Kd was determined as 8.6 ± 0.5 nM.

B2: 21/34 nt hairpin substrate (structured_DNA)
DNA 1: GTTTTTAGTTTATTGGGCGCG
DNA 2: CGCGCCCAGCTTTCCCAGCTAATAAACTAAAAAC
With B2, the binding result in the data set with Ku [2] is on record as “binds”.

Values taken from article PMC3553676.
